Test results as given in PMC11603127 (Computational and Structural Biotechnology Journal, 2024).
Substitutions are numbered along the chain they refer to.

Legend:
[1] = molecular target: T1, Recombinant NAA10 (wild type) (human, UniProt P41227 1-235, labeled with Monolith NT Protein Labeling Kit RED); experiment: MST
T1 sequence: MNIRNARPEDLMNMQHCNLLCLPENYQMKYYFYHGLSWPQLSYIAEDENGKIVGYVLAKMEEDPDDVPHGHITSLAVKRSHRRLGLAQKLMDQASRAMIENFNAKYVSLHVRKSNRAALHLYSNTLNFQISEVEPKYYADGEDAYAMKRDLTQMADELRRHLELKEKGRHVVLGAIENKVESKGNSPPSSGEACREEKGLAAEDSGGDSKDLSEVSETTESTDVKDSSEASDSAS

Recombinant NAA10^F128L = molecular target: T2, Recombinant NAA10^F128L (human, UniProt P41227 1-235, F128L, labeled with Monolith NT Protein Labeling Kit RED); experiment: MST
T2 sequence: T1 sequence with F128L

Does EEEIAALRWGRPVGRRRRPVRVYP [EEEI24 oligopeptide] bind [1]?
Result: binds

Does EEEIAALRWGRPVGRRRRPVRVYP [EEEI24 oligopeptide] bind (Recombinant NAA10^F128L)?
Result: binds
